Source: a protein production outcome set (Wang et al. 2014)

Test: label from the status in PepcDB records
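Also: failed if final PepcDB status was selected cloned or expressed and not failed if soluble or beyond.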

With “MLEVDVVRISVIVPIYNVKLYIERCVRSLMEQTLENIEFIFVNDCTPDDSMDILHYVLEEYPKRREQIKIIEHETNRGISAVRNTGLKNATGQYIIYCDSDDWVEKNMYEKLLVKALETSADIVGCDFFDDYVAHSTIRKQLFPQQSEKCVKKMLRGELHCGTWNKLVIKSLYERTKIDFPEGINMWEDVSTIIPLCFHATKIDYIPEALYHYIHHNVSSYTYSVTEKSLENLVASIQLLESFFLTNQCFKTFGEDLCFMKLTVKLNLLLGSKGELQKKRNMLYSSANRYIFSYSGMSWYWKIALWVASKKMLFCFNVMSCIERIIKKWKLEHHHHHH” the protein production was “failed”.

In the case of “MAILVTGSTGTIGSQVLAHLQGHNVEVRALTRSPETAQFPAGVTAVRGDLADPDSVRAALRGVSTLFLLAPNVADELTQAMLTLTVAREAGVKGIVYLSVFGGDGYADVPHFAGKYTVERMIEALDLPATILRPAYFIQNDLRQKDGLLKTGVYGSPIGKKGVSMVDIRDIGEAAAIELLRREQAATPLGRETYALVGPDSLTGEGIATIWREALGRAIRHGGDDLVVMEQRTKTMLPAWHALDLRLMFSRYQTEGAVATADDIERLTKLLGHAPRSYTAFARDAAAQWTKG”, the protein production is reported as “failed”.

For “PQALEFEYMRWIATGARAFIDAHQDASKLRITHLGGGACTMARYFADVYPQSRNTVVELDAELARLSREWFDIPRAPRVKIRVDDARMVAESFTPASRDVIIRDVFAGAITPQNFTTVEFFEHCHRGLAPGGLYVANCGDHSDLRGAKSELAGMMEVFEHVAVIADPPMLKGRRYGNIILMGSDTEFF”, the protein production was “failed”.

For “MQFIEKIGIVLATYNPNLEYFEKQIQSIKQQSWKNWVCHIVDDCSHSEYQVGIKNIIDNDPRFICHFHSHNLNHYYNFERGLKYCAQDKSITAISLADQDDIWHDDKLKILLKKLRSQKAVLIHSDLELINSYDQTIHPSAWDFEGRKPHKLSHDLLLLRNVVTGCSVLFCTSLLTDVLPFPPQNKISWYHDWWIALVASHRGKIVHIHKPLVWYRIHNANNVGVLKDSGKIHCELLLLCRKKFKINGNSYLVHRDFSKAFYRRFKRELNELGYTNPFDDRKLDFGWHILKLLYKSLLVGYNSEGAALRIGVLKLIFDIQRSYRIILYHCLKTFKSYYKNSQ”, the protein production was “failed”.

With “GLPAVDSEILEMPPEKADGVVEGIDVNGPKAQLMLRYPDGKREQITLPEQAKLLALVKHVQSKGYPNERFELLTNFPRRKLSHLDYDITLQEAGLCPQETVFVQERN” the protein production was “failed”.

For “LEDFNVTSKVIELDVRKPTPEAAENLNIGMDEDIYYVKRVRYINGQTLCYEESYYTKSIVTYLNNEIVSHSIFHYIREGLGLKIGFSDLFLHVGQLNEEEAEYLGLEAGLPKLYIESIFHLTNGQPFDYSKISYNYEQSQFVVQANSFLL”, the protein production was “failed”.

In the case of “MENSFLSSKLVFLLAIALVLFLNTELSFLTAEGASDSNSKVYIVYLGQREHDDPELLTASHHQMLESLLQSKEDAHNSMIYSYQHGFSGFAALLTSSQAKKISEHPEVIHVIPNRILKLKTTRIWDHLGLSPIPTSFSSSSSAKAKGLLHNTSMGSEAIIGVVDSGIWPESKVFNDQGLGPIPKRWRGKCRSGEKFNATMHCNKKLIGAKYYQSGLLAMNGGKFNRIIIRDFKSNRDATGHGTHTATIAGGSFVPNASFYGLARGTVRGGAPRARIASYKACWNVVGWGGICSSADMWKAYDDAIHDQVDVLSVSIGASIPEDSERVDFIAAFHAVAKGITVVAAAGNDGSGAQTICNVAPWLLTVAATTLDRSFPTKITLGNNQTFFGKTILEFDSTHPSSIAGRGVVAVILAKKPDDRPAPDNSYIFTDYEIGTHILQYIRTTRSPTVRISAATTLTGQPATPKVAAFSSRGPNSVSPAILKPDIAAPGVSILAAVSPLDPGAFNGFKLHSGTSMSTPVVSGIIVLLKSLHPKWSPAAMRSALVTTAWRTSPSGEPIFAQGSNKKLADPFDYGGGLVNPEKAAKPGLVYDMGIKDYINYMCSAGYNDSSISRVLGKKTKCPIPKPSMLDINLPSITIPNLEKEVTLTRTVTNVGPIKSVYRAVIESPLGITLTVNPTILVFKSAAKRVLTFSVKAKTSHKVNSGYFFGSLTWTDGVHDVTIPVSVKTTISM”, the protein production is reported as “failed”.

In the case of “MLCTYHAGQWFNNLLNFIDFIRLQFGKTANVLNLNDCLHIWLFSLEVRSLRDVVKMKLILSIMILSGCLLFILAGCARKNDYMPPAGATGEKIFKGACVQCHTPVNGKVMILRSEMANKEAIIERVTNGKGFGMPAFPNLTGDSVQNLAEYVLENSVTR”, the protein production is reported as “failed”.

For “MTAAIRRTVTFPGVSMARLKSMLGAYNGHLKQIEQRLDVQITHRGDAFYIDGDIDAVERAESLLQRLYNESETSDQISADILHLMIQGSQTDRELMDDSEQEHTGLDNVWLQTPKGRINPRGTNQKRYVQRILQSDISFGIGPAGTGKTYLAVAAAVDMLERNEIQRILLVRPAVEAGEKLGFLPGDLAQKIDPYLRPLYDALYEMLGFEKVAKLIERQVIEVAPLAYMRGRTLNHSFVILDEAQNTTPEQMKMFLTRLGFGSRAVITGDITQVDLPRGQQSGLAHALRVLEPIKEIHITRFHSRDVVRHQLVQKIVEAYEGWDSEQNRLSAEARAERKARQEALMSEHDAAADAQHQEA”, the protein production was “failed”.

For “NNLFVYCEIEDGIVADVSLELLTKGRSLANQLGCQLEAVVAGTGLKDIEKQILPYGVDKLHVFDGEGLYPYTSLPHTSILVNLFKEEQPQICLMGATVIGRDLGPRVSSALTSGLTADCTSLEIGDHEDKKEGKVYKNLLYQIRPAFGGNIVATIVNPEHRPQMATVREGVMKKAILAADYKGEVIHHDVKKYVADTDYVVKVIERHVEKAKNN”, the protein production was “failed”.

With “SFEIGCELEAQRELRAKQTLVGQVIDEDLMSIVYQPVWDIEAMQPLGFECLARFSPLPLRSPDKWFADAAEVGMGVELELHAIRKALQAIGRFPAPIDLSVNASAATILGGDLARLFDGVPLDRLIVEITEHSSVGNYDAILDVLRPLRQRGLRLAVDDAGAGYSSLHHILNMQPDFIKLDIGLTQNIDLDPARKALARALVGFARDTGSRIVAEGVERQSELDALRSIGVKKVQGYLLGRP” the protein production was “failed”.

In the case of “MTSPLRPEDPTRVGDYDLVARIGKGGQGVVYLGKAPDGTRVAVKVMETSWASNSRARSRFAKEIEAASKVAPFCTAALLDSDINADPPYIVSEYIEGPSLRDAVLRDGPRTGAALDRLAISTATALVAIHQAGVIHRDFKPANVLLGPDGPRVIDFGIARHSEATVTATDSIVGTPAYMAPEQVEGRELTPAVDIFAWAGVMVFAATGQSPFHDETLPAIINRVLHQPPRLDGVDERLRPLLEACLAKEPERRPTAVQVLGVLVGHDPATLPQVPVEEVLENGYTAALNEQTQIAATAALPIPIGDQAPEPAPTAVMPAAEDTPAPESRTPVSGLAALAANRPADEAPASSPPSGPLRTTSGLAALVNTGENKQPTASSPGEGPPRRSAGPGHQPLPPRSTRERKTVLSWLVAAGILIIVLAGGWFLIDTFLLSPNGQSPEATPVDGTRRDTPAQDGIDDSVPSPSAIDPDTPTSSDTGYPGGELYPSLPYDDMSQTDPMEEPHLNPTIPGEGPWHSPPAGEEAPGQPHGGGAEEGGSEGGEQPGTGGPGGSGEGGAGVGRVAVSPAAP”, the protein production is reported as “failed”.

With “MFEQIIAILFPVMSLVLIGYLIGLWLKPDFRPINRINMEAFVPALVFSSLVNMPLDTQQTPLLLAALVAVLLPGILMLLICRLGRWSFKTWAPLHMFRNSGNLAIPLFTYAFGETALPSAVLLFVVSMCLHISLGVAMLSKGSVLKTVLSAPVFLASSLALLLNLSGVSIWSPLYNATALLGQAAVPVMLLSLGSQMINLRLAGLKVGLVSTAQSLLTGACAFTVIYFFIPLPPLQLQMMVLFTMLPPAVMNYLFAERYHIEPTQVAAMVLFGNFFSLLSLPILLFIALSL” the protein production was “failed”.

With “RYTNILVPVDSSDAAQAAFTEAVNIAQRHQANLTALYVVDDSAYHTPALDPVLSELLDAEAAHAKDAMRQRQQFVATTSAPNLKTEISYGIPKHTIEDYAKQHPEIDLIVLGATGTNSPHRVAVGSTTSYVVDHAPCNVIVIR” the protein production was “not failed”.

For “MTPQDAQAFEQLLANCADEPIRSPGAIQPHGVLLTLSEPELRIQQISANVEALLGQPAAQVLGQPLEQLLGDTDGQRIREVLQLPRLSDAPPLHLAVNGARFEGLLHRHQGVLMLELEIQLEHLQPQHLKEQTENLGRLLRRLQTAKTLNELYAISVSEIQAMTGYDRVLIYRFEEEGHGQVIAEATRPTMEVFNGLFFPASDIPQQARELYRSNWLRIIPNADYQPVPLLPALRPDTQQALDLSFATLRSVSPIHCQYMKNMGVLSSMSISLLKGDQLWGLISCGNRQPLLVPHELRIACQTIGQVLSLQISAMEALDISRQREEKVTALASLDQAMRDTPDSVFDGLAQVPQLLLDLTQAGGVAIIEDKQLHCFGNCPPQDEIRALHRWLQGTGQAVFASHHLANVYPPAASYQQVASGVLAMTLPKPVDNGVLWFRPEVKENINWSGNPQKPLDLENSDAGLRLRPRTSFEIWKVEMAGISTKWSHGDRFAANDLRRSALEHDLARQVLREQQAVRARDELVAVVSHDLRNPMTVISMLCGMMQKAFSSDGPHTSRRISSAIDTMQQAASRMNNLLEDLLDTSKIEAGRYSIAPQPLDVSQMFEEAYSLLAPLALDKAIDISFHAEPDLRINADPERLFQVLSNLVGNAIKFTPKQGKVGVVAMSDGEQIVFSVRDSGEGIPTDQLPFIFDRYWTMKEGNPNGTGLGLYITQGIIHAHGGKIEAHSEVGKGSEFRFSVPRASL”, the protein production was “failed”.

In the case of “KTPIQVLHEYGMKTKNIPVYECERSDVQIHVPTFTFRVTVGDITCTGEGTSKKLAKHRAAEAAINILKANA”, the protein production is reported as “not failed”.

In the case of “MKPVFLDFEQPIAELTNKIDELRFVQDESAVDISDEIHRLQKKSNDLTKSIFSKLTPAQISQVSRHPQRPYTLDYIEALFTDFEELHGDRHFADDYAIVGGLARFNGQSVMVVGHQKGRDTKEKIRRNFGMPRPEGYRKALRLMKTAEKFGLPVMTFIDTPGAYPGIGAEERGQSEAIGKNLYELTRLRVPVLCTVIGEGGSGGALAVALGDYVNMLQYSTYSVISPEGCASILWKTAEKAADAAQALGITADRLQKLDLVDTVIKEPLGGAHRDFGQTMKNVKAVLEKQLHEAQSIPLADLLSRRFDRIMAYGKFSEQ”, the protein production is reported as “not failed”.

With “MTSPFHRLCRTTLAAGFLFGMASAALAVGDSNDDTNPPPKTETTKTCTGGKVWDKQRKECVTPKKNSFNDDDLYKFAREFAYAGQYENAITVLNLARNQNDPRILNYLGYANRKAGRMELGMSYYRKALQADENYILARSYMGMALVEQGDIQGARVQLVEIRDRGGEDTWAYRALLQSLNGYRTY” the protein production was “failed”.

With “MSHKISEYFANDPPSFFDELASKPKGNNLSTEGSSSSASSTSSAPNMMSNTFVGFFQPPEYVETPEAGEDSIKVGDDVRNLWELPRENEPGKLIMPGIHLQTDLADPISVAVTQHLGEAELSYRKILRVDDVTQDERGLRTLIHAGCYRTAVNLTGRLLTIYGQGYGRSGQPAKHSPHSLQLWFTRLALLAKLGEFELLNAEAEPFGQLTSPDVFYDFYPEMYNGKSGSIACFSFRLLLAELPIYLGKPHVALDRLSELHVTTREIKEHYLSLHNKAAEEFWQRRCERVLHSIINCGLMMKKFSMIDDIMEGTLLKRSNLSKEDRRSLYSAWGRIYLQIGDIFGAEQKIAVSRRLREINSAPDLRDLVDKGLIAVAKNDFPEAYVIFQKALHLDTGNTMILNNMGVCLLYAGKLKDAINLYERAINLNPQKSLNESLLVNLSTLYELESNNSKAKKYNLLRLINRYKPDLNISIEICLKLQTIN” the protein production was “failed”.

With “MNNQYKLIEEFNNAEFDKSLKWFSPPKDWEVNSNKSKLIVKPDKETDFWQKTHYEFQVDNGHFLYYELNGDFRLITKVKSKPANRYDQAGLMVRFSKDTWLKTSVEYIPDDNSKLGVVVTKNGYSDWSSQEFFGDLNSLYYRITRRGNNYYVDYSLDGDLWKQIRMVYLFEEKDCMKVGIYACSPQGDGYEAEFEFIKIENIDDNTKVY” the protein production was “failed”.
